One experiment has as its system Rat-1 cells. Nature of the experiment: Transient transfection cell killing assay (loss of β-galactosidase-positive blue cells). Format: cell-based. The following applies: for cell killing activity (reduction in number of blue β-gal expressing cells): Rat-1 cells co-transfected with β-galactosidase marker plasmid, 24 hours post transfection, relative to control vector. The method, then: The transient transfection assay procedure is similar to that previously described for detecting apoptosis induced by IL-1E-converting enzyme (Miura et al., Cell 75: 653-660 (1993); Kumar et al., Genes Dev. 8: 1613-1626 (1994); Wang et al., Cell 78: 739-750 (1994). One day prior to transfection, Rat-1 cells were plated in 24 well dishes at 3.5X10^4 cells/well. The following day, the cells were transfected with a marker plasmid encoding β-galactosidase (0.16 μg), in combination with an expression plasmid encoding Bak (0.42 μg), by the Lipofectamine procedure (Gibco/BRL). At 24 hours post transfection, cells were fixed and stained with X-Gal to detect J-galactosidase expression in cells that received plasmid DNA (Miura et al., supra). The number of blue cells was counted by microscopic examination and scored as either live (flat blue cells) or dead (round blue cells). The cell killing activity of Bak in this assay is manifested by a large reduction in the number of blue cells obtained relative to co-transfection of the β-gal plasmid with a control expression vector (i.e., with no bak cDNA insert).
The interpretation that loss of blue cells reflects the cell killing function of Bak is supported by a variety of observations: • 1. Rat-1 cells are rapidly killed by enforced Bak expression in stable transfection assays; • 2.
Enforced bak expression induces apoptosis in stable Rat-1 cell lines transfected with an inducible bak expression plasmid. In order to more rapidly assess the cell killing function of a large number of bak mutants, a transient transfection assay was employed. Rat-1 cells were transfected with a marker plasmid encoding β-galactosidase, in combination with an expression plasmid encoding Bak, or various control plasmids.

The next experiment has as its target Bcl-xL (Homo sapiens, UniProt Q07817). Nature of the experiment: In vitro protein binding assay, 35S labeled protein with GST-Bcl-xL on glutathione-agarose beads. Details: made in house; host or cells: E. coli. The following applies: tested both in vitro and in transfected COS cells. On the procedure:
A). Bak/Bcl-xL interactions measured in vitro. ^35S labeled in vitro translated Bak (lane 1) was mixed either with GST-Bcl-xL (lane 2) or GST (lane 3). The complexes were captured on glutathione-agarose beads, and bound ^35S labeled Bak protein was detected by electrophoresis on SDS polyacrylamide gels followed by autoradiography.
The beads were removed by centrifugation and the supernatants were incubated with GST or GST-Bcl-xL (final concentration […]) at 4° C. for 1 hour. The GST fusion proteins and any interacting proteins were recovered by incubation for 1 hour with an additional […] of GSH-agarose beads. The beads were washed twice with NP-40 lysis buffer followed by two washes with NP-40 lysis buffer without NP-40. Proteins were eluted from the beads by incubation in SDS-PAGE sample buffer at 100° C. for 5 min and loaded onto 4-20% SDS-polyacrylamide gels. Following electrophoresis, gels were fixed and incubated in a fluorography enhancing solution (Amplify; Amersham). The gels were dried and subjected to autoradiography at −70° C.

Ends that are not written are not given here.

Chain of Bcl-xL (Q07817 whole entry): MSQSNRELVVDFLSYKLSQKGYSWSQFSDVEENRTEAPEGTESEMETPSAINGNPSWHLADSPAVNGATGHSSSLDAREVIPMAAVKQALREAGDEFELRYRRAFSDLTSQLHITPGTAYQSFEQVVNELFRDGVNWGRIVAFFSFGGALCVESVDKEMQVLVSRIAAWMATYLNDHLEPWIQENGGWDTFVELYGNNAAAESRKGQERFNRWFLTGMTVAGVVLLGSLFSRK

With “Bax: Bcl-2 homolog and Bcl-2 interacting protein that induces apoptosis”, the “cell killing activity (reduction in number of blue β-gal expressing cells)” value in the experiment with Rat-1 cells is given as “eliminate blue cells”. The Bcl-xL binding capacity entry with Bcl-xL is given as “interact specifically with Bcl-xL”.

Consider “Bcl-xL: long form of bcl-x product, suppresses apoptosis”, for which the “restoration of number of blue cells on co-transfection with Bak” value in the experiment with Rat-1 cells (Rat-1 cells, co-transfection of Bak with Bcl-xL) is “partially restored”.

Regarding “PEM: truncated Bak protein derivative corresponding to amino acids 58-103 (PEMVTLPLQPSSTMGQVGRQLAIIGDDINRRYDSEFQTMLQHLQPT; not fully specified)”, the Bcl-xL binding capacity result with Bcl-xL is listed as “bound Bcl-xL”.

Turning to “QVG: truncated Bak protein derivative corresponding to amino acids 73-123 (QVGRQLAIIGDDINRRYDSEFQTMLQHLQPTAENAYEYFTKIATSLFESGI; not fully specified)”, the “cell killing activity (reduction in number of blue β-gal expressing cells)” value in the experiment on Rat-1 cells is “significantly reduced the number of blue cells”. Besides, in the experiment with Bcl-xL, the Bcl-xL binding capacity entry is recorded as “bound Bcl-xL”.

B1: Bip1a: Bcl-2 interacting protein that induces apoptosis, lacks BH1 and BH2 (protein)
chain: MSEVRPLSRDILMETLLYEQLLEPPTMEVLGMTDSEEDLDPMEDFDSLECMEGSDALALRLACIGDEMDVSLRAPRLAQLSEVAMHSLGLAFIYDQTEDIRDVLRSFMDGFTTLKENIMRFWRSPNPGSWVSCEQVLLALLLLLALLLPLLSGGLHLLLK
For B1, in the experiment on Rat-1 cells, the “cell killing activity (reduction in number of blue β-gal expressing cells)” value is on record as “eliminate blue cells”. In addition, the Bcl-xL binding capacity result with Bcl-xL is “interact specifically with Bcl-xL”.

B2: Bax ΔGD: Bax mutant with small deletion removing the conserved GD domain motif (protein)
chain: MDGSGEQPRGGGPTSSEQIMKTGALLLQGFIQDRAGRMGGEAPELALDPVPQDASTKKMELQRMIAAVDTDSPREVFFRVAADMFSDGNFNWGRVVALFYFASKLVLKALCTKVPELIRTIMGWTLDFLRERLLGWIQDQGGWDGLLSYFGTPTWQTVTIFVAGVLTASLTIWKKMG
As for B2, the “cell killing activity (reduction in number of blue β-gal expressing cells)” value in the experiment with Rat-1 cells is listed as “impaired in their ability to eliminate blue cells”. Besides, the Bcl-xL binding capacity entry with Bcl-xL was “no longer have the capacity to interact with Bcl-xL”.

B3: Bip1a ΔGD: Bip1a mutant with small deletion removing the conserved GD domain motif (protein)
chain: MSEVRPLSRDILMETLLYEQLLEPPTMEVLGMTDSEEDLDPMEDFDSLECMEGSDALRAPRLAQLSEVAMHSLGLAFIYDQTEDIRDVLRSFMDGFTTLKENIMRFWRSPNPGSWVSCEQVLLALLLLLALLLPLLSGGLHLLLK
As for B3, the “cell killing activity (reduction in number of blue β-gal expressing cells)” value in the experiment on Rat-1 cells is “impaired in their ability to eliminate blue cells”. Also, the Bcl-xL binding capacity result in the experiment with Bcl-xL is reported as “no longer have the capacity to interact with Bcl-xL”.

The values above are taken from US7358088B2, “Peptides and compositions which modulate apoptosis” (ImmunoGen, Inc., priority 1995, dated 2008).
